IntAct's records for PubMed 18688255

B1: Cleavage and polyadenylation specificity factor subunit 2 (Homo sapiens), Q9P2I0 (parent)
chain: MTSIIKLTTLSGVQEESALCYLLQVDEFRFLLDCGWDEHFSMDIIDSLRKHVHQIDAVLLSHPDPLHLGALPYAVGKLGLNCAIYATIPVYKMGQMFMYDLYQSRHNTEDFTLFTLDDVDAAFDKIQQLKFSQIVNLKGKGHGLSITPLPAGHMIGGTIWKIVKDGEEEIVYAVDFNHKREIHLNGCSLEMLSRPSLLITDSFNATYVQPRRKQRDEQLLTNVLETLRGDGNVLIAVDTAGRVLELAQLLDQIWRTKDAGLGVYSLALLNNVSYNVVEFSKSQVEWMSDKLMRCFEDKRNNPFQFRHLSLCHGLSDLARVPSPKVVLASQPDLECGFSRDLFIQWCQDPKNSIILTYRTTPGTLARFLIDNPSEKITEIELRKRVKLEGKELEEYLEKEKLKKEAAKKLEQSKEADIDSSDESDIEEDIDQPSAHKTKHDLMMKGEGSRKGSFFKQAKKSYPMFPAPEERIKWDEYGEIIKPEDFLVPELQATEEEKSKLESGLTNGDEPMDQDLSDVPTKCISTTESIEIKARVTYIDYEGRSDGDSIKKIINQMKPRQLIIVHGPPEASQDLAECCRAFGGKDIKVYMPKLHETVDATSETHIYQVRLKDSLVSSLQFCKAKDAELAWIDGVLDMRVSKVDTGVILEEGELKDDGEDSEMQVEAPSDSSVIAQQKAMKSLFGDDEKETGEESEIIPTLEPLPPHEVPGHQSVFMNEPRLSDFKQVLLREGIQAEFVGGVLVCNNQVAVRRTETGRIGLEGCLCQDFYRIRDLLYEQYAIV
partner: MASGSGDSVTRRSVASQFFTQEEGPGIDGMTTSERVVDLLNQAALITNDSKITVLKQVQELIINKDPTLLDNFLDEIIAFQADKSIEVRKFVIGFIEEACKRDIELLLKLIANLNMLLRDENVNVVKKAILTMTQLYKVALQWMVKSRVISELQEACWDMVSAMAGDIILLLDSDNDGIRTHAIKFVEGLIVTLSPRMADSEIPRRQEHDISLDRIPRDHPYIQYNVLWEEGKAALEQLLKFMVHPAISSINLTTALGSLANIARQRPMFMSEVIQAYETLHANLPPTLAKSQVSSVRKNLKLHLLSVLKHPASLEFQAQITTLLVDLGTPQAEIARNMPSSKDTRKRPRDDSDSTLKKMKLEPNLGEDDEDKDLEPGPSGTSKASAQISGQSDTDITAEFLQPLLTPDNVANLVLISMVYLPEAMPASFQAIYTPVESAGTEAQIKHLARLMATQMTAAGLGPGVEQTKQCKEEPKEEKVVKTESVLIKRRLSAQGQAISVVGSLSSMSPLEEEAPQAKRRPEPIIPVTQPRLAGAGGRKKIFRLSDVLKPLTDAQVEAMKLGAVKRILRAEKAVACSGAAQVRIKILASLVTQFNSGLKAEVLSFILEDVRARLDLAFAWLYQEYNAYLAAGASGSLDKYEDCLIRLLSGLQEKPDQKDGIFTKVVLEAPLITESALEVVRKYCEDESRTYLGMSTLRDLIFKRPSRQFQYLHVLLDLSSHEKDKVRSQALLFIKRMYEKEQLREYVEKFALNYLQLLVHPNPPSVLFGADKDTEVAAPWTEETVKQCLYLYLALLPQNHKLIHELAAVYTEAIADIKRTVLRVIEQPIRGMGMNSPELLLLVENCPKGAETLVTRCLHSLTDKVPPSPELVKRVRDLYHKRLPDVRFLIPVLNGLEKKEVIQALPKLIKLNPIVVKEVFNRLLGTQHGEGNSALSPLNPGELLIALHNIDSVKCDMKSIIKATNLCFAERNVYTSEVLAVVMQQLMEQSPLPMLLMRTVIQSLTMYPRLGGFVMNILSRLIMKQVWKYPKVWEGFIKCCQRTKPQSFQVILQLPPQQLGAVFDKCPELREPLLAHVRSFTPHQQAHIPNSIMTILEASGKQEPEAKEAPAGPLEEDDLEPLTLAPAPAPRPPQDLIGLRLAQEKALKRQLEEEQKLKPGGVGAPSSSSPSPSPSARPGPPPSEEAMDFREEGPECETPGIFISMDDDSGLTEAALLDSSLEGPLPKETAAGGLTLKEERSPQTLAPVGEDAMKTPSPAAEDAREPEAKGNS
B2: Cleavage and polyadenylation specificity factor subunit 2 (Homo sapiens), Q9P2I0 (parent)
chain: B1 chain
partner: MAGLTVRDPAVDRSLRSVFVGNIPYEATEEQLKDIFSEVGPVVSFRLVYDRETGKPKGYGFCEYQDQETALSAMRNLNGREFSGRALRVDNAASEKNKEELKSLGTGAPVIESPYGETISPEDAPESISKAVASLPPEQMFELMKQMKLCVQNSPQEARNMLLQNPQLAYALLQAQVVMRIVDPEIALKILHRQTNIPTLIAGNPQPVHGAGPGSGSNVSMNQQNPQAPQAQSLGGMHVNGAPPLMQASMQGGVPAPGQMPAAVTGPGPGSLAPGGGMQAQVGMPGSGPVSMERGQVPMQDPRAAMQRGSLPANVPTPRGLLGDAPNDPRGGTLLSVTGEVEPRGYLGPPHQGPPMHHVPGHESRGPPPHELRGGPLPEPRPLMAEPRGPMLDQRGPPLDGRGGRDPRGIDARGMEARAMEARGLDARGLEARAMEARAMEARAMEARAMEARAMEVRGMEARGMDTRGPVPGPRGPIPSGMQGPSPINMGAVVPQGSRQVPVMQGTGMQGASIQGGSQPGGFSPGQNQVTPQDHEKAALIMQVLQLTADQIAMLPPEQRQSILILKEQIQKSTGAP

Variants of: B1
Conditions: with sympk_human SYMPK

Row | Variant | effect of a mutation on the interaction
1 | H67A | decreasing interaction

Variants of: B2
Conditions: with cstf2_human CSTF2, P33240

Row | Variant | effect of a mutation on the interaction
2 | R543A | disrupting interaction
